The target of this assay is human voltage-gated sodium channel hNav1.1 (hSCN1A) (human) (UniProt P35498). Nature of the assay: cell-based or functional assay.

Our source for the EC50 for evoking sustained currents values is US11124550.

Chain of recombinant Hm1b (peptide) (P0DOC5 1-34, tags left off): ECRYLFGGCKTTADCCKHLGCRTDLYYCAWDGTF

recombinant Hm1b (peptide) registered an EC50 for evoking sustained currents of 0.0185 µM.
